Measured values taken from US20160321394A1 (ACADEMIA SINICA, published 2016).
Where no end group is shown, it is not given here.

Columns and labels:
[1] = biological target: T1, full-length recombinant human GRP78 (glucose-regulated protein 78), N-His tagged (human, UniProt P11021 19-654, limits assumed); test: Biacore X SPR, 50 µM peptide over immobilised N-His GRP78; RU/MW normalised to L-peptide
T1 construct: Immobilised on a Biacore NTA chip by Ni chelation plus amine coupling; also called His-tagged GRP78; human glucose-regulated protein 78; not shown: N-terminal His tag
T1 sequence (P11021 19-654 limits assumed): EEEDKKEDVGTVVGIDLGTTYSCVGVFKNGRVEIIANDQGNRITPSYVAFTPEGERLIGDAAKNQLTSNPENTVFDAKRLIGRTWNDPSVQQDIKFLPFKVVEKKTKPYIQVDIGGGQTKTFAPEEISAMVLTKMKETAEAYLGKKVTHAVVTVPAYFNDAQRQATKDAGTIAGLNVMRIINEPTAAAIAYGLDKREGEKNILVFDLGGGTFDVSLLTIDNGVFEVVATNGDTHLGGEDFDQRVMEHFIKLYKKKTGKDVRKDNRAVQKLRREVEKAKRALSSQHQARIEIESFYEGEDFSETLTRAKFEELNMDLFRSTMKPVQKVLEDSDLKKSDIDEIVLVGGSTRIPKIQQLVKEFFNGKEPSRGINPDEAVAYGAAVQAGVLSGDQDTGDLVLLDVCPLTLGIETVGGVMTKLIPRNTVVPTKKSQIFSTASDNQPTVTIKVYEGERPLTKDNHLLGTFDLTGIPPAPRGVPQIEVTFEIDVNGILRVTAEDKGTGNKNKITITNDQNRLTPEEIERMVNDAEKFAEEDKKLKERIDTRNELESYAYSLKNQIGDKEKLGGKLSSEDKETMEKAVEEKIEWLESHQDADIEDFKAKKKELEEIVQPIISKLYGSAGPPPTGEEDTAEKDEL
Description: The chip NTA and HBS-P buffer were obtained from GE Healthcare. Sensor chip NTA was prepared by combining Ni-ion chelation and covalent immobilization of N-His tagged GRP78 via amine-coupling with nitrilotriacetic acid on chip NTA (FIG. 6). To immobilize GRP78 protein on sensor chip for peptide-binding assay using Biacore, the methods based on Ni-ion chelation and amine coupling reaction were combined. Sensor chip NTA was prepared by chelation followed by covalent immobilization of N-His-tagged GRP78 via amine-coupling at the nitrilotriacetic acid group on chip NTA. The sensor chip NTA, HBS-P buffer and amine coupling kits were all obtained from GE Healthcare. First, the activation of chip surface using EDC and NHS reagents for amine coupling were according to the standard procedure from manufacturer's instruction. Additionally, one-minute pulse of NiCl₂ solution (500 μM) was used to attract His-tagged GRP78 to the surface of sensor chip and formed covalent bond subsequently in the condition of HBS-P buffer (pH 7.4). The resulting differences of RU were about 5,000˜6,000 RU. After de-activation by ethanolamine and washed with EDTA (3 mM), the prepared sensor chip was then applied to Biacore X for binding assay. The HBS-P buffer containing 1 mM Gly was used as running buffer for binding assay. Solution of 20 mM sodium hydroxide dissolved in running buffer was used to regenerate the chip surface by one-minute pulse.
The sensor chip thus prepared was applied to Biacore X for determining the binding between the peptides and GRP78. The HBS-P buffer containing 1 mM Gly was used as a running buffer. A solution of 20 mM sodium hydroxide dissolved in the running buffer was used to regenerate chip surface by 1-minute pulses.

[2] = biological target: full-length recombinant human GRP78 (glucose-regulated protein 78), N-His tagged (human) (UniProt P11021); test: as above
Chain of full-length recombinant human GRP78 (glucose-regulated protein 78), N-His tagged (human) (P11021 19-654 limits assumed): as above

Row | Binding index [1] | Binding index [2] | Binder
1 | 1.15 | – | RLLDTNRPLLPY-NH2 [PB-3]
2 | – | 3 | RLLDTNRPYLWY [PB-2]
3 | 1 | – | RLLDTNRPLLPY (synthetic 12-mer, lead peptide; also called positive control) [L-peptide]
4 | 0.3 | – | RLLDTNRPQLPY [PA-5]
5 | 0.21 | – | RLLDTNRPLLLY [P-14]
6 | 0.77 | – | RLLDTNRPLLGY [P-11]
7 | 1.6 | – | RLLDTNRPFLWY [PB-1]
8 | 0.47 | – | RLLDTNRPHLPY [PA-6]
9 | 0.35 | – | RLLDTNRPWLPY [PA-1]
10 | 0.31 | – | RLLDTNRPNLPY [PA-4]
